This note sets out measurements from the supplement of paper PMC9170038.

The test system of the series is K4 kissing-loop RNA reporter. Briefly: apparent KD of K4 kissing-loop reporter; higher = weaker reporter binding. To be noted: Eterna round: R107. The protocol: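 RNA-MaP round R107: designed RNA switches with theophylline, tryptophan, arginine or FMN aptamers are transcribed on-chip within common flanks. They are titrated with a labelled K4 kissing-loop RNA reporter in RNA-MaP buffer (100 mM Tris pH 7.5, 80 mM KCl, 4 mM MgCl2), without ligand or with the indicated ligand. Median apparent KD per design.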

[1] abbreviates: input ligand: theophylline 20 uM.
Where [2] appears, read: input ligand: tryptophan 2.4 mM.
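Further: bound reporter read as fluorescence of individual clusters on recovered sequencing chips by microscopy, with normalized cluster intensities fitted with a binding model.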

Consider “AAAUUUAUAUUAGAUACCAGCAAAUUGAAAGUUUAUUAUGACAAGAGUGAUGUUCUUGUAUGCCCUUGGCAGCUGGUAUGGGUUU [KL-XTheo-B26]”, for which the “apparent KD of K4 kissing-loop reporter” value is, setting by setting: (input ligand: FMN 200 uM) 112 nM; (input ligand: arginine 13.2 mM) 106 nM; (input ligand: none) 120 nM; under setting [1], 111 nM; under setting [2], 108 nM.
The matching figures for “UAGUCUCGAGUCUGAGAUUACGGGUCAGAUACCAGACUAGAGAUAGUCCCUUGGCAGCUGAAGUUCAGUGAUGUUGAACGGAUUA [Theo B SS t10a]”: 501 nM, 394 nM, 441 nM, 510 nM and 377 nM.
As to “UGACAUUGCUCAGAUACCAGACAAGAGGAUCACCCUUGUGCCAACGUACAAAUAAUAAAUGUCCCUUGGCAGCUGAGCAAUGUCU [TheoBX 15]”, the “apparent KD of K4 kissing-loop reporter” value amounted to 64.1 nM (input ligand: FMN 200 uM); 31.9 nM (input ligand: arginine 13.2 mM); 58.2 nM (input ligand: none); 92.8 nM under setting [1]; 47.5 nM under setting [2].
On to “GGUUCUGGAAUCGAGUGAUGUUCGGUGUUGCAGGAUAUAGAGAGAUCUAGAAGGGCAGUUUGUAUUUUAUUGAGUGAUUUUCUUU [Last Minute #3]”, for which the “apparent KD of K4 kissing-loop reporter” value reads like this: (input ligand: FMN 200 uM) 84 nM; (input ligand: arginine 13.2 mM) 83.1 nM; (input ligand: none) 106 nM; under setting [1], 106 nM; under setting [2], 93.4 nM.
Regarding “GCCGUAGAUGGAAGGAGCGUGUCCAAACCUCAUUCAUGUACACACGAGUGAUGUUCGUGUACACAGGUAGGUCGCCAUCUACGGC”, the “apparent KD of K4 kissing-loop reporter” value reads like this: (input ligand: FMN 200 uM) 413 nM; (input ligand: arginine 13.2 mM) 314 nM; (input ligand: none) 374 nM; under setting [1], 410 nM; under setting [2], 363 nM.
The matching figures for “AGAAGGAGAACUGCAAGAACUCCUUCAGACUAGGAUAUCAGGAAACUGAGAAGGAGUCAACUUGCAGUGAUGUUGCAAGAAUAAU [[F]''-[K]'-[F]'-[F1]-[F2]-[K1]-[K2]_Design1]”: 155 nM, 114 nM, 119 nM, 103 nM and 131 nM.
Turning to “UAGAGCAUCGCAGGAUAUCCUGCUUAACGUUGGAUUCCAGUGAUGUUGGAAAGCCGGCCUAGGGUAGGAGAAGGGCGGAUUUGAA [Edvean]”, the “apparent KD of K4 kissing-loop reporter” value (input ligand: FMN 200 uM) came to 171 nM; the “apparent KD of K4 kissing-loop reporter” value (input ligand: arginine 13.2 mM) was determined as 151 nM; the “apparent KD of K4 kissing-loop reporter” value (input ligand: none) came to 215 nM; the “apparent KD of K4 kissing-loop reporter” value under setting [1] was found to be 322 nM; the “apparent KD of K4 kissing-loop reporter” value under setting [2] amounted to 149 nM.
The matching figures for “UAAGAGGACCACUGCAAGAGUCCUCGAAUACGAGGACCGGUACGGCCGCCACUCGAUAACUUGCAGUGAUGUUGCAAGUAAGAAU [(T)''-(K)'-(T)'-(T1)-(T2)-(K1)-(K2)_Design1]”: 124 nM, 129 nM, 119 nM, 144 nM and 84.4 nM.
The matching figures for “CAGCAGAGUGAUGUUCUGCUUACUGCGGAUACCAGCUUUGCCAGAGGCCCUUGGCAGCCGCACGGCUCAGUGAUGUUGGGUCACG [Same State Theophylline A GF 13]”: 296 nM, 293 nM, 361 nM, 323 nM and 301 nM.
The matching figures for “GGCGGCUGCGCGCAAGCGCAGCCGGCCGAUACCAGCGCGACGGCGCGCCCUUGGCAGCGGCGCCGAGUGAUGUUCGGCCUGCCGG [#2 Same State - Theophylline A Attempt #19 (HarryS)]”: 433 nM, 380 nM, 738 nM, 418 nM and 416 nM.
On to “CCGAGCCUGACGAAAGUCAGGCUCUGCGAGCGAGGACCGGUACGGCCGCCACUCGGUGCAGUGAUGUUGCAUGGCCGCAAGGCCG [#2 Exclusion - Tryptophan A Attempt #22 (HarryS)]”, for which the “apparent KD of K4 kissing-loop reporter” value (input ligand: FMN 200 uM) came out at 156 nM; the “apparent KD of K4 kissing-loop reporter” value (input ligand: arginine 13.2 mM) is 223 nM; the “apparent KD of K4 kissing-loop reporter” value (input ligand: none) is 240 nM; the “apparent KD of K4 kissing-loop reporter” value under setting [1] is 261 nM; the “apparent KD of K4 kissing-loop reporter” value under setting [2] is 312 nM.
The matching figures for “GUACGCUUCCGAGUGAUGUUCGGUAAUAGUUAGGAUAUCGUUUUUUCGAGAAGGAACUGAAUGAGGAAACUCGUUCGAAGUGUAC [FMN A 16]”: 395 nM, 266 nM, 380 nM, 424 nM and 266 nM.
As to “UAUCGAGUGAUGUUCGAUGUAGUCCAUUCAGAGGAUAUAGGAUUGACUAGAAGGCUGAAACCUUCUUCGAGUGAUGUUCGAGGAU [Same State FMN A GF4]”, the “apparent KD of K4 kissing-loop reporter” value was found to be 92.5 nM (input ligand: FMN 200 uM); 39.6 nM (input ligand: arginine 13.2 mM); 58.9 nM (input ligand: none); 45.2 nM under setting [1]; 47.4 nM under setting [2].
With “GCGGGCCCUGGAGGAUAUGAGUCGAGUGAUGUUCGGCGGUCCAUGCCGAUGCGGCGUUAUGCCCUUUUAGAAGGCCAGGGCCCGC [#2 Exclusion - FMN B Attempt #7 (HarryS)]”, the “apparent KD of K4 kissing-loop reporter” value reads like this: (input ligand: FMN 200 uM) 392 nM; (input ligand: arginine 13.2 mM) 236 nM; (input ligand: none) 310 nM; under setting [1], 243 nM; under setting [2], 277 nM.
The matching figures for “AAGGAAUGUAUAGAUUAUAUACAUUCAACAGAGGAUAUGCAUUAUUGCAGAAGGCUGAAUGCAGUGAUGUUGCAAUAAUUAUUUA [#09 K4 FMN A Same State]”: 60.5 nM, 199 nM, 181 nM, 291 nM and 129 nM.
On to “UUACGCGGCAUAGAUACCAGCAAUGCAGGAUAGGUCAAGAGUGAUGUUCUGAUACUUGGGUGCCCUUGGCAGCUAGACGAUAACA [theeternabot_sameState_KL_Theo_B_46]”, for which the “apparent KD of K4 kissing-loop reporter” value was 479 nM (input ligand: FMN 200 uM); 449 nM (input ligand: arginine 13.2 mM); 521 nM (input ligand: none); 412 nM under setting [1]; 308 nM under setting [2].
Regarding “CCGAAGAACCAGUGAUGUUGGUUGACUAGACAGGAUAUGAGCAACAUCAGAAGGGUCUGGCUUCGGGAGAGAGUCGCGCUGACCU [Anditebier]”, the “apparent KD of K4 kissing-loop reporter” value is, setting by setting: (input ligand: FMN 200 uM) 208 nM; (input ligand: arginine 13.2 mM) 350 nM; (input ligand: none) 388 nM; under setting [1], 28.7 nM; under setting [2], 453 nM.
Turning to “GCUAAGGAGUGAUGUUCCAAGUGAUGUUAACGAGGACCGGUACGGCCGCCACUCGAUACGGCCGGACCGUAAGAUAAACUACAGC [Same State - Tryptophan A (Freestyle 6)]”, the “apparent KD of K4 kissing-loop reporter” value worked out at 206 nM (input ligand: FMN 200 uM); 182 nM (input ligand: arginine 13.2 mM); 213 nM (input ligand: none); 279 nM under setting [1]; 194 nM under setting [2].
In the case of “AAACGCUUGAAUAACAAGCGAAUAAAUUCGCGAGGACCGGUACGGCCGCCACUCGCUAACUGCGAGUGAUGUUCGAUAAUAAAAU [Mat - Mod of OpenEnded 3 - D14]”, the “apparent KD of K4 kissing-loop reporter” value is, setting by setting: (input ligand: FMN 200 uM) 115 nM; (input ligand: arginine 13.2 mM) 91.8 nM; (input ligand: none) 170 nM; under setting [1], 176 nM; under setting [2], 95 nM.
The matching figures for “AACGGCCAGUCGGCCGCCACUCAAAGCAGUGAUGUUGCUAACUUUCUAAAAGAGUGAUGUUCUUAGAGGACCGGGACUAAUGUAA [Exclusion Tryptophan B GF 2]”: 115 nM, 147 nM, 125 nM, 143 nM and 102 nM.
The matching figures for “ACACUUUACGUAGGAUAUGCGACGAGUGAUGUUCGUCAGGCGGCUCUAGAUUAAACAAGCCGCCUAGCAGAAGGACGGGCAGUGU [Teaanso]”: 154 nM, 145 nM, 164 nM, 160 nM and 163 nM.
